Test results as given in article PMC10333884, “Large‐scale phosphomimetic screening identifies phospho‐modulated motif‐based protein interactions” (Molecular Systems Biology, 2023).
pKd: −log10 of the molar value. “And” between values parts separate entries of the source, which are not always exact repeats. Identical values can stand only once. Blank lines part the entries; values can stand above or below the substance they belong to.

Key:
MAP1LC3B (human) = MAP1LC3B (human) (UniProt Q9GZQ8); assay: fluorescence polarisation; displacement of a FITC-labelled probe peptide (5 nM in the measurement) from the protein domain (1-2 fold over the probe's KD) by a dilution series of unlabelled peptide; room temperature; 50 mM sodium phosphate pH 7.4; KD calculated from the displacement curve; for KPNA4 ARM one probe for each pocket
MAP1LC3A (human) = assay: as above
GABARAPL2 (human) [1] = target: GABARAPL2 (human) (UniProt P60520); assay: fluorescence polarisation
GABARAPL2 (human), sequence (P60520 whole entry, the tested form may be a part): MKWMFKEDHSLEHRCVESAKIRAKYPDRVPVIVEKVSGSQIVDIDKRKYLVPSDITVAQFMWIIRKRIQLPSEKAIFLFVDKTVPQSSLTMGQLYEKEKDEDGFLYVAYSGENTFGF

[2] = target: Clathrin N-terminal domain (NTD) (human) (UniProt Q00610); assay: ITC; iTC200; peptide titrated against the protein domain in approximately 10-fold excess, 16 injections; 50 mM sodium phosphate buffer pH 7.4, 1 mM DTT; constants of single runs and their average
Clathrin N-terminal domain (NTD) (human), sequence (Q00610 1-364): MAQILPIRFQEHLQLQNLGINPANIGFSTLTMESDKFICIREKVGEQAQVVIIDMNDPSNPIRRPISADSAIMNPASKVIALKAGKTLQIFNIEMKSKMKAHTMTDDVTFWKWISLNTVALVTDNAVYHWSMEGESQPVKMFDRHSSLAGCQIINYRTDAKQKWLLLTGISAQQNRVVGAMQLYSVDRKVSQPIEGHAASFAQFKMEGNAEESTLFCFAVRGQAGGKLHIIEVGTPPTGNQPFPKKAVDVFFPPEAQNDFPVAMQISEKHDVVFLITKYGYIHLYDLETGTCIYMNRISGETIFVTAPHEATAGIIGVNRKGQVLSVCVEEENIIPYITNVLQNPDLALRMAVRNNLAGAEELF

[3] = target: Clathrin N-terminal domain (NTD) (human) (UniProt Q00610); assay: fluorescence polarisation
[4] = target: Clathrin N-terminal domain (NTD) (human) (UniProt Q00610); assay: fluorescence polarisation; displacement of a FITC-labelled probe peptide (5 nM in the measurement) from the protein domain (1-2 fold over the probe's KD) by a dilution series of unlabelled peptide; room temperature; 50 mM sodium phosphate pH 7.4; KD calculated from the displacement curve; for KPNA4 ARM one probe for each pocket
[5] = target: Clathrin N-terminal domain (NTD) (human) (UniProt Q00610); assay: ITC; peptide titrated against protein domain in about 10-fold excess, 16 injections; 50 mM sodium phosphate pH 7.4, 1 mM DTT
[6] = target: Clathrin N-terminal domain (NTD) (human) (UniProt Q00610); assay: fluorescence polarisation; displacement of a FITC-labelled probe peptide (5 nM in the measurement) from the protein domain (1-2 fold over the probe's KD) by a dilution series of unlabelled peptide; room temperature; 50 mM sodium phosphate pH 7.4; KD calculated from the displacement curve; for KPNA4 ARM one probe for each pocket; remark: listed apart in the source
KPNA4 ARM ARM domain [7] = target: KPNA4 ARM ARM domain (UniProt O00629); assay: FP displacement, minor-pocket FITC probe; conditions: reference: unphosphorylated peptide
KPNA4 ARM ARM domain [8] = target: KPNA4 ARM ARM domain (UniProt O00629); assay: FP displacement, major-pocket FITC probe; conditions: reference: unphosphorylated peptide
GGA1 VHS domain (human) = GGA1 VHS domain (human) (UniProt Q9UJY5); assay: ITC; iTC200; peptide titrated against the protein domain in approximately 10-fold excess, 16 injections; 50 mM sodium phosphate buffer pH 7.4, 1 mM DTT; constants of single runs and their average
GGA1 VHS domain (human), sequence (Q9UJY5 17-147): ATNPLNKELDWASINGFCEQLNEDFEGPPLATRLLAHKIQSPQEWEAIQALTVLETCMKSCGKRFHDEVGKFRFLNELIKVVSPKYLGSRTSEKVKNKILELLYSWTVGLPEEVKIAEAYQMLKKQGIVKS

MAP1LC3B ATG8 (human) = assay: as above
GABARAPL2 (human) [9] = target: GABARAPL2 (human) (UniProt P60520); assay: fluorescence polarisation; displacement of a FITC-labelled probe peptide (5 nM in the measurement) from the protein domain (1-2 fold over the probe's KD) by a dilution series of unlabelled peptide; room temperature; 50 mM sodium phosphate pH 7.4; KD calculated from the displacement curve; for KPNA4 ARM one probe for each pocket
14‐3‐3 theta = 14‐3‐3 theta (UniProt P27348); assay: FP displacement of FITC probe peptide; conditions: reference: unphosphorylated peptide; sites S375

pKd (MAP1LC3B (human)): 5.34
pKd (MAP1LC3A (human)): 5.51
pKd (GABARAPL2 (human) [1]): 5.74
Substance: ATG4C_(444–458), phosphomimetic (E) (from UniProt Q96DT6 444-458) (peptide)

pKd (MAP1LC3B (human)): 5.15
pKd (MAP1LC3A (human)): 5.28
pKd (GABARAPL2 (human) [1]): 6.10
Substance: ATG4C_(444–458), wild‐type (from UniProt Q96DT6 444-458) (peptide)

stoichiometry N [2]: 0.552 and 0.557 and 0.458
Substance: HURP 832-846 peptide, phosphomimetic (S839 to glutamate) (from UniProt Q15398 832-846)

KD (KPNA4 ARM ARM domain [7]; sites S125): stronger; reference 68 ± 4
KD (KPNA4 ARM ARM domain [8]; sites S125): same; reference 0.15 ± 0.01
Substance: RANBP3 114-129 (from UniProt Q9H6Z4) pS125 peptide (p+6)

stoichiometry N (GGA1 VHS domain (human)): 0.8
Substance: RNF11 6-21 peptide, wild-type (from UniProt Q9Y3C5 6-21)

stoichiometry N (MAP1LC3B ATG8 (human)): 1.09 and 1.17 and 0.932
Substance: TBK1 164-179 peptide, phosphorylated (from UniProt Q9UHD2 164-179)

pKd (GABARAPL2 (human) [9]): 5.55
Substance: TBK1_(164–179), phosphorylated (pS) (from UniProt Q9UHD2 164-179) (peptide)

pKd (MAP1LC3B (human)): 3.65
pKd (MAP1LC3A (human)): 4.11
Substance: TPD52L2_(91–106), phosphomimetic (E) (from UniProt O43399 91-106) (peptide)

pKd [4]: > 5.52
pKd [5]: 5.30
Substance: pS839 HURP_(832–846) (from UniProt Q15398 832-846) (peptide)

Second part, the substance before the results:

Substance: HURP_(832–846), phosphomimetic (E) (from UniProt Q15398 832-846) (peptide)
pKd [3]: 4.64

Substance: HURP_(832–846), wild‐type (from UniProt Q15398 832-846) (peptide)
pKd [4]: 3.87
pKd [5]: 3.60
pKd [6]: 3.82

Substance: RNF11 6-21 peptide, phosphomimetic (from UniProt Q9Y3C5 6-21)
stoichiometry N (GGA1 VHS domain (human)): 0.97 and 0.905

Substance: RNF11 6-21 peptide, phosphorylated (from UniProt Q9Y3C5 6-21)
stoichiometry N (GGA1 VHS domain (human)): 0.722 and 0.731

Substance: SQSTM1 258-272 (from UniProt Q13501) phosphorylated peptide
KD (KPNA4 ARM ARM domain [7]; sites S266): weaker; reference 14.0 ± 0.7
KD (KPNA4 ARM ARM domain [8]; sites S266): weaker; reference 0.24 ± 0.04

Substance: TBK1_(164–179), phosphomimetic (E) (from UniProt Q9UHD2 164-179) (peptide)
pKd (GABARAPL2 (human) [9]): 4.91
pKd (MAP1LC3B (human)): 5.68

Substance: TBK1_(164–179), wild‐type (from UniProt Q9UHD2 164-179) (peptide)
pKd (GABARAPL2 (human) [9]): 4.72
pKd (MAP1LC3B (human)): 4.98

Substance: TOM1 366-382 (from UniProt O60784) pS375 peptide
binding against the reference (14‐3‐3 theta): gained
